In the DeepSol protein solubility set:

Assay: soluble on expression in E. coli; label from the status in PepcDB or PDB records

| Sequence | soluble on expression in E. coli |
| --- | --- |
| GVVNVVVPQYVNCPDVCHWESAIMIYLMGELVERGLQDKVVFVTIGVNPYYETIEDGKRYMESVAGDYLDKGVKWIWVLDDVEKQEELWNMFGIAVSLYCVKNDGSIIDELTYDDYLKLEESGECSFVGVNHTAGFIIVDGDGVFRYFMSPTEDGWKRGQRQVAETILQYILKLVEERK | not soluble |
| GYIDTGLYQNKEDILNSPRRLGSTQTKLGDIGYTDVNGDGKIDGEDQVRIGKPTMPHFTYAFDFSLGYEGFTLSGLLYGTGERYMTFGNRYQSGEGKYLYYENQLNYWRPDNTGADFPRISISSGVNGNNNKAGSTFWMRNASYLRLKDLQLSYDFKYKYLKKCDWLQTCRVNLSGSNLFTISGVSKFFDPETSSTSGDGYPVQRVYSIGVTIGF | not soluble |
| HATMEPLNCFVDLQSDSCLIRTGSQFQTGDRNAAARVAGLKPEQVTLETTFLGGGFGRRACPASDFVIEAVQVAKTVGKPVMVIRTREDDMRAG | not soluble |
| HELLSREEVESILSENQLLLQVTPTAPPKTPLSVCFYQVSLEIDRPQSPLVSQSAFEEAATLYNLLPKVDSWICEQLLVDHAQAIHQKGLALAIPLSEAALLKEDFRQSLLTLVQQTLLPPQSLYWMIDESTLLQYPFAIGNFLAKLQQPGCKLIVKEFGHNLNDFELLAEHHIDYLKFNSELIAHIHINQMDEVLISIINGTAQRANIATLAGPVELPPTLSKLIDIGVDLADGTMIGRTEPLSEVLNSSYFAIK | soluble |
| HFRRSLRHIFRRRSAGELPAAHTAAAPGTPGEAAETPARPGLAKKFLPWSLAREPPPEALKEAVLRYSLADEASMDSGARWQRGRLALRRAPGPDGPDRVLELFDPPKSSRPKLQAACSSIQEVRRCTRLEMPDNLYTFVLKVKDRTDIIFEVGDEQQLNSWMAELSECTGRGLESTEAEMHIPSALEPSTSSSPRGSTDSLNQGASPGGLLDPACQKTDHFLSCYPWFHGPISRVKAAQLVQLQGPDAHGVFLVRQSETRRGEYVLTFNFQGIAKHLRLSLTERGQCRVQHLHFPSVVDMLHHFQRSPIPLECGAACDVRLSSYVVVVSQPPGSCNTVLFPFSLPHWDSESLPHWGSELGLPHLSSSGCPRGLSPEGLPGRSSPPEQIFHLVPSPEELANSLQHLEHEPVNRARDSDYEMDSSSRSHLRAIDNQYTPL | soluble |
| HGDGPGNAVQEIMIPASKAGLVIGKGGETIKQLQERAGVKMVMIQDGPQNTGADKPLRITGDPYKVQQAKEMVLELIRDQG | soluble |
| HHHHHHHSEMTPREIVSELDKHIIGQDNAKRSVAIALRNRWRRMQLNEELRHEVTPKNILMIGPTGVGKTEIARRLAKLANAPFIKVEATKFTEVGYVGKEVDSIIRDLTDAAVKMVRVQAIEKNRYRAEELAEERILDVLIPPAKNNWGQTEQQQEPSAARQAFRKKLREGQLDDKEIEIDLAAAPMGVEIMAPPGMEEMTSQLQSMFQNLGGQKQKARKLKIKDAMKLLIEEEAAKLVNPEELKQDAIDAVEQHGIVFIDEIDKICKRGESSGPDVSREGVQRDLLPLVEGCTVSTKHGMVKTDHILFIASGAFQIAKPSDLIPELQGRLPIRVELQALTTSDFERILTEPNASITVQYKALMATEGVNIEFTDSGIKRIAEAAWQVNESTENIGARRLHTVLERLMEEISYDASDLSGQNITIDADYVSKHLDALVADEDLSRFIL | soluble |
| HHHHHHSEEEAIQIIADPPLPPASFTLRDYVDHSETLQKLVLLGVDLSKIEKHPEAANLLLRLDFEKDIKQMLLFLKDVGIEDNQLGAFLTKNHAIFSEDLENLKTRVAYLHSKNFSKADVAQMVRKAPFLLNFSVERLDNRLGFFQKELELSVKKTRDLVVRLPRLLTGSLEPVKENMKVYRLELGFKHNEIQHMITRIPKMLTANKMKLTETFDFVHNVMSIPHHIIVKFPQVFNTRLFKVKERHLFLTYLGRAQYDPAKPNYISLDKLVSIPDEIFCEEIAKASVQDFEKFLKTL | soluble |
| HNPLYTAHELESPFQDHGARVAIVWDKAADTLEKLRRNTPLETIVSVNMMTAMPAVQQALLRLPIPMIRKKRDALTASAPNTIPWEILVGSALGGNGDDIVPCPEVTKKSIALILYTSGTTGTPKGAQLSHGNLFANIMQGKAWVKGIGDQDER | not soluble |
| HQRWHKKASVLIYGAGSSGRQLATALSQGPEYHAVAFIDDYKALQGQIIQGIPVYSPEEISHVVERKTVQKILLAIPSASRARRKQVLAKIDCLGIQVLTIPGMADIVEGKAKLEEFKDVGVEDLLGRDSVEPKPELMNADIAD | not soluble |
| HYNTEILKSIDNEWRKTQCMPREVCIDVGKEFGVATNTFFKPPCVSVYRCGGCCNSEGLQCMNTSTSYLSKTLFEITVPLSQGPKPVTISFANHTSCRCMSKLDVYRQVHSIIRR | soluble |
| ICFSKIFNTQYLSDIRYIDLNQNIDTIKSNFKKGLRYNIKKSKNEGCDLKIIENPSSEDIDHFMECYNSMLCRNESSEKYHFSKQFIMDHFKFIKTFLILAYYQKKVVGAGIFFKGETIMHYHLSGTLKLKGIYPNDLILWESIKKSKDLGLKYFFLGGGVIKDDSLFEYKSGFSK | not soluble |
| IGDMAPKANMGWYNSFSYKGFNLGMMLTARLGGLVVSNTQGVLDYYGVSKASADARDAGGVWINNGYVDAKEYYQTIGGSNGGLGQYYTYSATNVRLSELSFSYAFPKKWFNNKVGITAGFVAKNLWMIYCKAPFDPELTASTSSNFYQGVDYFMTPSTRNLGFNVKFQF | not soluble |
| IGKVKLSARGTFTYARNKIVEYDELPQRYPWMAQTGMRINENYLYIAERLYTKEDFIVSKNGSGIETYTLRSELPQSTLGGLLGPGDIKYKDINGDGIIDSYDKVRGVGHPKVPEIVYGFGLNIEYKGFYASAFFQGAGNCSVLLGGNTPEGWFPFSWGVDQSNYRTFALDRWTEKNPSQNVLMPRLHKDNTNAANNSVASTWWLRNGGFLRLKNVELGYQLPKKLLSKINLQAARIYLMGYNIALWDDLKYFDPEAGNANGGNTYPKARTFTLGIDFTF | not soluble |
| INAVRAALLENAHFMEKFYLQNGRFKQTSTKWPSLPIKEAEGFCIRLNGIARGALDSKFMLKAVAIDKDKNPFIIKMNENLVTFICKKSASSCSDGLDYFKGNDKDCKLLK | not soluble |
| IPLFSDAEIKPNHATRTTQVGMPLAISVDDYSQLAFVLTQSGEIQYLSMDAPDKPAIYTQQLATNPVSFSQSAPGLGWYGLVDDQGLAHIFKPEFNATLRENTRPPEVVALSTDMNLTLTDAQDPVTQFVFSASTQTPTIVWQTRSGKVKARWQEKSALGVAPTTIDFSFSAGFDAPQQMLLTPDGETLYLRDGSELIVLTKAAQKFTVREVIDLTQGDKKHSVRTIDLLAGAYSLLVTHNDGRVSQWFDTLQNDKRTLTHIRDFKLASELKYLLPDSHRKGFYSFYTNGTLQSHYTTSEKLVLFKRAYKQAPAMAAMSNNERYLITWNDDSLKVAEVDNSYPEVSLSSLWQKVWYEGYPEPEFVWQSTSASDNFEAKFSLVPIAFGTIKAA | not soluble |
| IQKMANSFQKLASSVVLFETEINEFLVLFTDTKNKREESEPVRQVSTTQEYHQVTLDQQHYFNHKLSDYFRLFKDKTFFFEII | not soluble |
| IQRSIERALDFRKEVQRLREESDGWFFDIWQPEAVDKAECWPVAPGEDWHGFKDADADHMYLDPVKVTILTPGMDEQGNMDEEGIPAALVAKFLDERGVVVEKTGPYNLLFLFSIGIDKTRAMGLLRGLTEFKRAYDLNLRVKNMLPDLYAEDPDFYRNMRIQDLAQGIH | not soluble |
| IQTTAPPVKESSFVEKMKKTGRNIIVFYGSQTGTAEEFANRLSKDAHRYGMRGMSADPEEYDLADLSSLPEIDKSLVVFCMATYGEGDPTDNAQDFYDWLQETDVDLTGVKFAVFGLGNKTYEHFNAMGKYVDQRLEQLGAQRIFELGLGDDDGNLEEDFITWREQFWPAVCEFFGVEATGEESSIRQYELVVHEDMDVAKVYTGEMGRLKSYENQKPPFDAKNPFLAAVTANRKLNQGTERHLMHLELDISDSKIRYESGDHVAVYPANDSALVNQIGEILGADLDVIMSLNNLDEESNKKHPFPCPTTYRTALTYYLDITNPPRTNVLYELAQYASEPSEQEHLHKMASSSGEGKELYLSWVVEARRHILAILQDYPSLRPPIDHLCELLPRLQARYYSIASSSKVHPNSVHICAVAVEYEAKSGRVNKGVATSWLRAKEPAGENGGRALVPMFVRKSQFRLPFKSTTPVIMVGPGTGIAPFMGFIQERAWLREQGKEVGETLLYYGCRRSDEDYLYREELARFHKDGALTQLNVAFSREQAHKVYVQHLLKRDREHLWKLIHEGGAHIYVCGDARNMAKDVQNTFYDIVAEFGPMEHTQAVDYVKKLMTKGRYSLDVGS | soluble |
| IREAIARNPQEIFQYVRLSQVKRDDKVLGYRVSPGKDPVLFESIGLQDGDMAVALNGLDLTDPNVMNTLFQSMNEMTEMSLTVERDGQQHDVYIQF | not soluble |
| ISEFGSSRMLTTLIYRSQVHPDRPPVDLDALVHRASSKNLPLGITGILLFNGLQFFQVLEGTEEALESLFSEIQSDPRHRDVVELMRDYSAYRRFHGTGMRILDLRLFETDGALEEILRFSTFGVTEPVNDRMFRLLSAFIADGGRYCLPEPLQPSRWMMMPASGTAAPQHLPGQPCQFALQAIVEPAKKRVSSFEALIRSPTGGSPVEMFAAIAAEDRYRFDLESKAYAFALAGQLPLGKHQLAINLLPGSLYHHPDAVGWLMDSLLAAGLRPDQVLIEVTETEVITCFDQFRKVLKALRVAGMKLAIDDFGAGYSGLSLLTRFQPDKIKVDAELVRDIHISGTKQAIVASVVRCCEDLGITVVAEGVETLEEWCWLQSVGIRLFQGFLFSRPCLNGIGEICWPVARQAMDL | soluble |
| ISEFGSTMARAIYDFFSTPFGNRGLATNRTQLSSLLSSSNSPWQRFLSSMTPLTAPGIVSTPEAPYPGSLMYQESMLHSATVPGVLGSRDAWRTFNVFGLSWTDEGLSGLVAAQDPPPAAPYQPASAQWSDLLNYPRWANRRRELQSKYPLLLRSTLLSAMRAGPVLYVETWPNMISGRLADWFMSQYGNNFVDMCARLTQSCSNMPVEPDGNYDQQMRALISLWLLSYIGVVNQTNTISGFYFSSKTRGQALDSWTLFYTTNTNRVQITQRHFAYVCARSPDWNVDKSWIAAANLTAIVMACRQPPVFANQGVINQAQNRPGFSMNGGTPVHELNLLTTAQECIRQWVMAGLVSAAKGQALTQEANDFSNLIQADLGQIKAQDDALYNQQPGYARRIKPFVNGDWTPGMTAQALAVLATFTA | soluble |
| ISNKHFEQAIERVVAGMEKKTQVLQKEEKKTVAYHEAGHAIAGWFLQHADPLLKVSIIPRGKGLGYAQYLPKEQYLYSKDQLLDRMCMTLGGRVAEEIFFGRITTGAQDDLQKVTQMAYSQVVKFGMSEKVGPLSFETPAPGEMAFDKPYSEATAQLIDQEQFADLPEILDSGNLPICRKFSIPAICRFAGNFQFRQFANLPNCRKFSIPTICQFAGNFNFQKIADLPEKIVRDLVMNALRRTRDLLLEKRSDIERVALRLLEKEILNREDMIEL | not soluble |
| ISNRIKGKTVLVTGAGGSIGSEICRQISAFQPKEIILLGHGENSIHSIYTELNGRFGKHIVFHTEIADVQDRDKMFTLMKKYEPHVVYHAAAHKHVPLMEHNPEE | not soluble |
| ISVLDLTPVSTGQQPGEALRHTLELAEVADSYQYTRFWIAEHHNSGAFVSAATEILIALAAARTGRIRVGSGGVMLPNHSPLKVAENFMSLEALFPGRIDLGLGRAPGTDGRTALALRRSREALAADDFPTQIALLRAFAGETPWPAGSVFDGVLAEPRGVKLPPLWILGSSLYGAQLAGELGVGYAFAYHFSQEDPAVAVQTYHRHFRPGPLAEPYAILGVNALAAPTEDEARDLSLTSAALSLGILSGQRGVLRSPEEARQWLQEMDTDPAKLLKKARIGTPEQVWASLQELGESTGAQEMLVTTYAHDPLKRQQSYRLLAQ | not soluble |
